Test results reported in patent US20230235040A1 (ALMIRALL S A, published 2023).

Tests used:
[1] = molecular target: T1, hu-IL-36β (human IL-36β, N-terminally truncated active form R5-E157) (human); assay: SPR (Biacore 8K), biotinylated hu-IL-36β captured on CAP chip, Fab injected, 37°C
T1 construct: Purification tag cleaved off; Biotinylated where captured; also called hu-IL-36b
T1 chain: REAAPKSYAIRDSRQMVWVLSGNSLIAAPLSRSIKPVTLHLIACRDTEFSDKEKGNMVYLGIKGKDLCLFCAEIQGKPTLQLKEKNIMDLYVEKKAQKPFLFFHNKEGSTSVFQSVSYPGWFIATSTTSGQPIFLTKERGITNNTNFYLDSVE
Procedure: (§1) Briefly, a 1:4 dilution of Biotin CAPture Reagent (GE) into HBS-EP buffer (0.01 M HEPES pH 7.4, 0.15 M NaCl, 3 mM EDTA, 0.005% Surfactant P20) was applied to a CAP sensor chip at 2 uL/min flow rate. For kinetics measurements, 6 nM biotinylated human IL-36β was captured at 10 uL/min to achieve ˜50 response units in the second flow cell (FC2). FC1 was kept as a reference. […] The sensorgram was recorded and subject to reference and buffer subtraction before evaluating by BIACORE® 8K Evaluation Software (version 1.1.1.7442). Association rates (kₒₙ) and dissociation rates (koff) were calculated using a simple one-to-one Langmuir binding model.

[2] = molecular target: T1, hu-IL-36β (human IL-36β, N-terminally …); assay: cell-based or functional assay
[3] = molecular target: T2, hu-IL-36α (human IL-36α, N-terminally truncated active form K6-F158) (human, UniProt Q9UHA7 6-158); assay: phage competition ELISA: Fab on phage, soluble hu-IL-36α titrated against coated hu-IL-36α
T2 construct: Purification tag cleaved off; Biotinylated where captured (SPR, some ELISAs); also called hu-IL-36a
T2 sequence: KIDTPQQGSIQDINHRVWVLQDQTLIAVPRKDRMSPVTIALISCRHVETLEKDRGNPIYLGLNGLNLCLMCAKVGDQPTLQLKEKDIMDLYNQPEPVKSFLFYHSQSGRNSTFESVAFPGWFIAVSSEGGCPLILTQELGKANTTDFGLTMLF
Procedure: (§2) Selected phages with top binding signal were purified to perform phage competition ELISA. The optimal phage concentration was incubated with serially-diluted human IL-36α or human IL-36γ in ELISA buffer in NUNC F plate for two hours. 80 μL of the mixture was transferred to human IL-36α or human IL-36γ coated wells for 15 min to capture unbound phage. The plate was washed with wash buffer (0.05% TWEEN®20 in PBS), and HRP-conjugated anti-M13 antibody (Sino biological, Cat #11973-MM05-H-50) was added in ELISA buffer for 30 min. The plates were washed and developed as described above. The absorbance at 450 nm was plotted as a function of antigen concentration in solution to determine phage IC50.

[4] = molecular target: T3, hu-IL-36γ (human IL-36γ, N-terminally truncated active form S18-D169) (human, UniProt Q9NZH8 18-169); assay: phage competition ELISA: Fab on phage, soluble hu-IL-36γ titrated against coated hu-IL-36γ
T3 construct: Purification tag cleaved off; Biotinylated where captured; also called hu-IL-36g
T3 sequence: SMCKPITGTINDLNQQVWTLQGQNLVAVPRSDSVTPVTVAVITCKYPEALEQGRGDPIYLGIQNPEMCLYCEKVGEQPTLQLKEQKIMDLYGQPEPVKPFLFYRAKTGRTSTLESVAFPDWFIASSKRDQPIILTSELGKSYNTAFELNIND
Procedure: as §2

[5] = molecular target: T3, hu-IL-36γ (human IL-36γ, N-terminally …); assay: SPR (Biacore 8K), biotinylated hu-IL-36 captured on CAP chip, Fab injected, 37°C
Procedure: as §1, with “3” for “6”, “IL-36α and human IL-36γ” for “IL-36β”

[6] = molecular target: T2, hu-IL-36α (human IL-36α, N-terminally …); assay: as above
Procedure: as §1, with “3” for “6”, “IL-36α and human IL-36γ” for “IL-36β”

B1: mAb6_2.5 Fab (Fab, V domains shown)
VH: ELQLQESGPGLVKPSETLSLTCTVSGGSITASNYYWGWIRQPPGKGLEWIGSIDYTGSTYYEPSLKSRVTISVDTSKNQFSLKLSSVTAADTAVYYCATGSYYETYLGFDVWGQGTLVTVSS
VL: ESVLTQPPSVSGAPGQRVTISCTGSSSNIGAHYDVHWYQQLPGTAPKLLIYGNDNRPSGVPDRFSGSKSGTSASLAITGLQAEDEADYYCQSYDYSLSGYVFGGGTKLTVL
notes: Recombinant Fab with 8xHis tag (Expi293F)
Work on B1 yielded a Kd [1] of 0.66 nM, a koff [1] of 0.000476 s⁻¹ and a kon [1] of 717000 M⁻¹ s⁻¹. The “IC50, IL-36-stimulated IL-8 secretion by HaCat cells” value (shortened to “IC50 … by HaCat cells”) [2] was 0.2 nM.

B2: mAb6 Fab (Fab, V domains shown)
VH: ELQLQESGPGLVKPSETLSLTCTVSGGSITSSNYYWGWIRQPPGKGLEWIGSIDYTGSTYYNPSLKSRVTISVDTSKNQFSLKLSSVTAADTAVYYCARGKYYETYLGFDVWGQGTLVTVSS
VL: ESVLTQPPSVSGAPGQRVTISCTGSSSNIGAGYDVHWYQQLPGTAPKLLIYGNTNRPSGVPDRFSGSKSGTSASLAITGLQAEDEADYYCQSYDISLSGWVFGGGTKLTVL
With B2 the “IC50 … by HaCat cells” value [2] was 0.15 nM.

B3: mAb6_2.8 Fab (Fab, V domains shown)
VH: ELQLQESGPGLVKPSETLSLTCTVSGGSITASNYYWGWIRQPPGKGLEWIGSIDYTGSTYYNPSLKSRVTISVDTSKNQFSLKLSSVTAADTAVYYCASGKYYETYLGFDVWGQGTLVTVSS
VL: ESVLTQPPSVSGAPGQRVTISCTGSSSNIGAHYDVHWYQQLPGTAPKLLIYGNDNRPSGVPDRFSGSKSGTSASLAITGLQAEDEADYYCQSYDYSLSGYVFGGGTKLTVL
notes: as for B1
For B3, the Kd [1] was 1.08 nM, the koff [1] was 0.000343 s⁻¹ and the kon [1] was 317000 M⁻¹ s⁻¹. The “IC50 … by HaCat cells” value [2] was 0.33 nM.

B4: mAb2.3 Fab (phage-displayed) (Fab, V domains shown)
VH: ELQLQESGPGLVKPSETLSLTCTVSGGSISTSSDYWGWIRQPPGKGLEWIGSIYYTGNTYYLPSLKSRVTISVDTSKNQFSLKLSSVTAADTAVYYCSRVRYGVGVPRYFDPWGQGTLVTVSS
VL: ESVLTQPPSVSGAPGQRVTISCTGSSSNIGAHYDVHWYQQLPGTAPKLLIYGNDNRPSGVPDRFSGSKSGTSASLAITGLQAEDEADYYCQSYDYSLSGYVFGGGTKLTVL
B4 was tested, and the IC50 [3] was 0.82 nM and the IC50 [4] was 2.39 nM.

B5: mAb6_2.6 Fab (Fab, V domains shown)
VH: ELQLQESGPGLVKPSETLSLTCTVSGGSITASNYYWGWIRQPPGKGLEWIGSIDYTGSTYYEPSLKSRVTISVDTSKNQFSLKLSSVTAADTAVYYCATGNYYETYLGFDVWGQGTLVTVSS
VL: ESVLTQPPSVSGAPGQRVTISCTGSSSNIGAHYDVHWYQQLPGTAPKLLIYGNDNRPSGVPDRFSGSKSGTSASLAITGLQAEDEADYYCQSYDYSLSGYVFGGGTKLTVL
notes: as for B1
Work on B5 yielded a Kd [1] of 0.82 nM, a koff [1] of 0.000705 s⁻¹ and a kon [1] of 856000 M⁻¹ s⁻¹.

B6: mAb2.12 Fab (Fab, V domains shown)
VH: ELQLQESGPGLVKPSETLSLTCTVSGGSISESSYYWGWIRQPPGKGLEWIGSIYYTGETYYAPSLKSRVTISVDTSKNQFSLKLSSVTAADTAVYYCARVKYGVGVPRYFDPWGQGTLVTVSS
VL: ESVLTQPPSVSGAPGQRVTISCTGSSSNIGAHYDVHWYQQLPGTAPKLLIYGNDNRPSGVPDRFSGSKSGTSASLAITGLQAEDEADYYCQSYDYSLSGYVFGGGTKLTVL
notes: as for B1
B6 showed a Kd [5] of 0.28 nM, a koff [5] of 0.000503 s⁻¹ and a kon [5] of 1.81e+06 M⁻¹ s⁻¹. For the same binder, the Kd [6] was 0.16 nM, the koff [6] was 0.000277 s⁻¹ and the kon [6] was 1.7e+06 M⁻¹ s⁻¹.

B7: mAb6_2.9 Fab (Fab, V domains shown)
VH: ELQLQESGPGLVKPSETLSLTCTVSGGSITSSNYYWGWIRQPPGKGLEWIGSIDYTGSTYYNPSLKSRVTISVDTSKNQFSLKLSSVTAADTAVYYCATGKYYETYLGFDVWGQGTLVTVSS
VL: ESVLTQPPSVSGAPGQRVTISCTGSSSNIGAHYDVHWYQQLPGTAPKLLIYGNDNRPSGVPDRFSGSKSGTSASLAITGLQAEDEADYYCQSYDYSLSGYVFGGGTKLTVL
notes: as for B1
For B7, the Kd [1] was 1.37 nM, the koff [1] was 0.000411 s⁻¹ and the kon [1] was 299000 M⁻¹ s⁻¹.

B8: mAb2.2 Fab (phage-displayed) (Fab, V domains shown)
VH: ELQLQESGPGLVKPSETLSLTCTVSGGSISESSYYWGWIRQPPGKGLEWIGSIYYTGNTYYNPSLKSRVTISVDTSKNQFSLKLSSVTAADTAVYYCAGVRYGVGVPRYFDPWGQGTLVTVSS
VL: ESVLTQPPSVSGAPGQRVTISCTGSSSNIGAHYDVHWYQQLPGTAPKLLIYGNDNRPSGVPDRFSGSKSGTSASLAITGLQAEDEADYYCQSYDYSLSGYVFGGGTKLTVL
B8 was tested, and the IC50 [3] was 0.75 nM and the IC50 [4] was 3.79 nM.

B9: mAb6_2.10 Fab (Fab, V domains shown)
VH: ELQLQESGPGLVKPSETLSLTCTVSGGSITSSNYYWGWIRQPPGKGLEWIGSIDYTGSTYYQPSLKSRVTISVDTSKNQFSLKLSSVTAADTAVYYCARGNYYETYLGFDVWGQGTLVTVSS
VL: ESVLTQPPSVSGAPGQRVTISCTGSSSNIGAHYDVHWYQQLPGTAPKLLIYGNDNRPSGVPDRFSGSKSGTSASLAITGLQAEDEADYYCQSYDYSLSGYVFGGGTKLTVL
notes: as for B1
Work on B9 yielded a Kd [1] of 2.47 nM, a koff [1] of 0.00103 s⁻¹ and a kon [1] of 415000 M⁻¹ s⁻¹.

B10: mAb2.9 Fab (Fab, V domains shown)
VH: ELQLQESGPGLVKPSETLSLTCTVSGGSISDSSYYWGWIRQPPGKGLEWIGSIYYTGETYYAPSLKSRVTISVDTSKNQFSLKLSSVTAADTAVYYCARVKYGVGVPRYFDPWGQGTLVTVSS
VL: ESVLTQPPSVSGAPGQRVTISCTGSSSNIGAHYDVHWYQQLPGTAPKLLIYGNDNRPSGVPDRFSGSKSGTSASLAITGLQAEDEADYYCQSYDYSLSGYVFGGGTKLTVL
notes: as for B1
Binder B10 has a Kd [5] of 0.24 nM, a koff [5] of 0.000565 s⁻¹ and a kon [5] of 2.4e+06 M⁻¹ s⁻¹. For the same binder, the Kd [6] was 0.12 nM, the koff [6] was 0.00026 s⁻¹ and the kon [6] was 2.19e+06 M⁻¹ s⁻¹.

B11: mAb2.1 Fab (phage-displayed) (Fab, V domains shown)
VH: ELQLQESGPGLVKPSETLSLTCTVSGGSISDSSYYWGWIRQPPGKGLEWIGSIYYTGNTYYNSSLKSRVTISVDTSKNQFSLKLSSVTAADTAVYYCARVRYGVGVPRYFDPWGQGTLVTVSS
VL: ESVLTQPPSVSGAPGQRVTISCTGSSSNIGAHYDVHWYQQLPGTAPKLLIYGNDNRPSGVPDRFSGSKSGTSASLAITGLQAEDEADYYCQSYDYSLSGYVFGGGTKLTVL
Work on B11 yielded an IC50 [3] of 1.03 nM and an IC50 [4] of 4.86 nM.

B12: mAb6_2.7 Fab (Fab, V domains shown)
VH: ELQLQESGPGLVKPSETLSLTCTVSGGSITASNTYWGWIRQPPGKGLEWIGSIDYTGSTYYNPSLKSRVTISVDTSKNQFSLKLSSVTAADTAVYYCATGKYYETYLGFDVWGQGTLVTVSS
VL: ESVLTQPPSVSGAPGQRVTISCTGSSSNIGAHYDVHWYQQLPGTAPKLLIYGNDNRPSGVPDRFSGSKSGTSASLAITGLQAEDEADYYCQSYDYSLSGYVFGGGTKLTVL
notes: as for B1
B12 gave a Kd [1] of 0.61 nM, a koff [1] of 0.00018 s⁻¹ and a kon [1] of 297000 M⁻¹ s⁻¹. For the same binder, the “IC50 … by HaCat cells” value [2] was 0.2 nM.

B13: mAb2.8 Fab (Fab, V domains shown)
VH: ELQLQESGPGLVKPSETLSLTCTVSGGSISDSSYYWGWIRQPPGKGLEWIGSIYYTGETYYAPSLKSRVTISVDTSKNQFSLKLSSVTAADTAVYYCARLRYGVGVPRYFDPWGQGTLVTVSS
VL: ESVLTQPPSVSGAPGQRVTISCTGSSSNIGAHYDVHWYQQLPGTAPKLLIYGNDNRPSGVPDRFSGSKSGTSASLAITGLQAEDEADYYCQSYDYSLSGYVFGGGTKLTVL
notes: as for B1
With B13 the Kd [5] was 0.17 nM, the koff [5] was 0.000301 s⁻¹ and the kon [5] was 1.8e+06 M⁻¹ s⁻¹. The Kd [6] was 0.14 nM, the koff [6] was 0.000254 s⁻¹ and the kon [6] was 1.83e+06 M⁻¹ s⁻¹.
